Source: PMC9945983 (Proceedings of the National Academy of Sciences of the …, 2023)

How the values were obtained:
SEC-MALS = target: the molecule itself; assay: SEC-MALS
[1] = target: T1, PARC6^685–819 as part of the PARC6^685–819–PDV1^263–272 fusion protein (Arabidopsis thaliana, UniProt Q8VY16 685-819); assay: crystal structure
T1 sequence (looked up): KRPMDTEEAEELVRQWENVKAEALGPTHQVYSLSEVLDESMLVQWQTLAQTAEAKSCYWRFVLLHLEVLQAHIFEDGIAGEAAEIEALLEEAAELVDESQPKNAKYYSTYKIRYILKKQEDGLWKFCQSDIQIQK

Binder | stoichiometry N (SEC-MALS) | binding result [1]
PARC6^640–819 (PARC6C), C-terminal domain of PARALOG OF ARC6 (domain or fragment, Arabidopsis thaliana, UniProt Q8VY16 640-819, looked up, intramolecular disulfide bond C657-C741 under oxidized conditions) NGIVGNIKVLIDMLKMHCGEHPDALYLKSSGQSATSLSHSASELHKRPMDTEEAEELVRQWENVKAEALGPTHQVYSLSEVLDESMLVQWQTLAQTAEAKSCYWRFVLLHLEVLQAHIFEDGIAGEAAEIEALLEEAAELVDESQPKNAKYYSTYKIRYILKKQEDGLWKFCQSDIQIQK | 2 | 
DHLDVMMARG (peptide, UniProt Q9FK13 263-272, looked up) [PDV1C (PDV1^263–272) as part of the PARC6^685–819–PDV1^263–272 fusion protein] |  | binds
